In publication PMC6198510 (2018):

What was measured:
JK18 [1] = experiment: FP
JK16 [2] = experiment: FP
JK18 [3] = experiment: FP; direct titration
JK16 [4] = experiment: FP; direct titration

Kd (JK18 [1]): 4.1 µM | Kd (JK16 [2]): 6.7 µM | Kd (JK18 [3]): 4.1 µM | Kd (JK16 [4]): 6.7 µM
B1: c-Jun N-terminal kinase 3 (enzyme)
chain: MSLHFLYYCSEPTLDVKIAFCQGFDKQVDVSYIAKHYNMSKSKVDNQFYSVEVGDSTFTVLKRYQNLKPIGSGAQGIVCAAYDAVLDRNVAIKKLSRPFQNQTHAKRAYRELVLMKCVNHKNIISLLNVFTPQKTLEEFQDVYLVMELMDANLCQVIQMELDHERMSYLLYQMLCGIKHLHSAGIIHRDLKPSNIVVKSDCTLKILDFGLARTAGTSFMMTPYVVTRYYRAPEVILGMGYKENVDIWSVGCIMGEMVRHKILFPGRDYIDQWNKVIEQLGTPCPEFMKKLQPTVRNYVENRPKYAGLTFPKLFPDSLFPADSEHNKLKASQARDLLSKMLVIDPAKRISVDDALQHPYINVWYDPAEVEAPPPQIYDKQLDEREHTIEEWKELIYKEVMNSEEKTKNGVVKGQPSPSGAAVNSSESLPPSSSVNDISSMSTDQTLASDTDSSLEASAGPLGCCR
